Target: microtubules of Xenopus S3 cells stably expressing EGFP-α-tubulin (Xenopus laevis (endogenous in S3 cells); cDNA of the EGFP-tagged copy not stated | Xenopus laevis (endogenous in S3 cells))
Assay: fluorescence molecule counting on microtubules in cells

B1: mCherryFP-TgDCX (full-length wild-type TgDCX, mCherryFP at the N-terminus) (natural protein)
chain: MACGIPWKLARRDELMATRQAERPGEYFPPPYPPCPPTVVTPLRTSAYDFPEATFVTRPCLPAKKATGHKNVFERLTDTAYYTGSHRERFDEFGNGRGIAGREYLYAYDGLTESPSRCHEVYSSVIKRPRKPVVTPGTLGIQRFGVQIPAPRLMWLYRNGDKHDDGTPFFVRPYIKSMESLYQQITKEITPIAGPVRRIFDQNFRVITDLDDIVDGAKYLCTSGEPPAAYDRLEKFLSEWVIQKSQTKVPSQFFVV
**Q.** What does the source list for B1?
**A.** DCX molecules per micron (short, smoothly curved microtubule arcs) (molecules per micron): 4850; TgDCX molecules per micron of fiber length ("flexible" microtubules) (molecules per micron): 1460; stoichiometry N (TgDCX molecules per tubulin dimer): 0.9

Reference: article PMC7048138
